Source: US20250361295A1 (ANTENGENE BIOLOGICS, published 2025)

Key:
human LILRB3 [1] = biological target: T1, human LILRB3 (human, UniProt O75022 24-631); assay: FACS, 293F-hLILRB3 cells
T1 construct: whole, on cells; also called hLILRB3
Method: (§1) The protocol for FACS analysis is described as follows: [0438] (a) Cells were harvested by centrifugation at 300 g for 3 mins. […] (b) The cells were washed for 2 times with FACS buffer by centrifuging at 300 g for 3 mins and the supernatant was discarded. [0440] (c) Cell were resuspended and seeded into assay plate (2×10⁵ cells/well) in 50 μl FACS buffer. […] Cells were incubated with antibodies at 4° C. for 1 hour. […] (d) Step (b) was repeated and the cells were resuspended with 100 μl diluted 2nd antibody, incubated at 4° C. for 1 hour in the dark. [0442] (e) Step (b) was repeated and the cells were resuspended with 100 μl FACS buffer. The cells were kept in dark for FACS analysis.

human LILRB4 [2] = biological target: T2, human LILRB4 (human, UniProt Q8NHJ6 22-448); assay: cell-based or functional assay
human LILRB4 [3] = biological target: T2, human LILRB4; assay: FACS, 293F-hLILRB4 cells
Method: as §1

human LILRA6 protein = biological target: T3, human LILRA6 protein (human, UniProt Q6PI73 24-447, limits assumed); assay: ELISA, LILRA6 protein
T3 construct: protein for ELISA; construct not described; also called hLILRA6 protein

human LILRB4 [4] = biological target: T2, human LILRB4; assay: cell-based or functional assay; remark: listed apart in the source
human LILRB4 [5] = biological target: T2, human LILRB4; assay: cell-based or functional assay; remark: listed apart in the source
human LILRB4 [6] = biological target: T2, human LILRB4; assay: FACS, 293F-hLILRB4 cells; remark: listed apart in the source
Method: The subcloning plates were screened by protein or cell-based ELISA, and the subclones with good binding ability were expanded to 24-wells for confirmation tests. The specificity and cross-reactivity of these subclones were confirmed with FACS analysis. […] Fluorescent dye-conjugated secondary antibody was used to detect the binding of the primary antibody with the cells. Median fluorescence intensity (MFI) was measured by FACS analysis. […]

human LILRB1 = biological target: T4, human LILRB1 (human, UniProt Q8NHL6 24-650); assay: FACS, 293F-hLILRB1 cells
T4 construct: whole, on cells; also called hLILRB1

human LILRB5 = biological target: T5, human LILRB5 (human, UniProt O75023 24-590); assay: FACS, 293F-hLILRB5 cells
T5 construct: whole, on cells; also called hLILRB5

human LILRB2 = biological target: T6, human LILRB2 (human, UniProt Q8N423 22-597); assay: FACS, 293F-hLILRB2 cells
T6 construct: whole, on cells; also called hLILRB2

human LILRA3 = biological target: T7, human LILRA3 (human, UniProt Q8N6C8 24-439); assay: FACS, 293F-hLILRA3 cells
T7 construct: whole, on cells; also called hLILRA3

human LILRA1 = biological target: T8, human LILRA1 (human, UniProt O75019 17-489); assay: FACS, 293F-hLILRA1 cells
T8 construct: whole, on cells; also called hLILRA1

human LILRA2 = biological target: T9, human LILRA2 (human, UniProt Q8N149 24-483); assay: FACS, 293F-hLILRA2 cells
T9 construct: whole, on cells; also called hLILRA2

human LILRB3 [7] = biological target: T1, human LILRB3; assay: FACS, 293F-hLILRB3 cells; remark: listed apart in the source
human LILRA4 = biological target: T10, human LILRA4 (human, UniProt P59901 24-499); assay: FACS, 293F-hLILRA4 cells
T10 construct: whole, on cells; also called hLILRA4

human LILRA5 = biological target: T11, human LILRA5 (human, UniProt A6NI73 42-299); assay: FACS, 293F-hLILRA5 cells
T11 construct: whole, on cells; also called hLILRA5
T11 sequence (A6NI73 42-299): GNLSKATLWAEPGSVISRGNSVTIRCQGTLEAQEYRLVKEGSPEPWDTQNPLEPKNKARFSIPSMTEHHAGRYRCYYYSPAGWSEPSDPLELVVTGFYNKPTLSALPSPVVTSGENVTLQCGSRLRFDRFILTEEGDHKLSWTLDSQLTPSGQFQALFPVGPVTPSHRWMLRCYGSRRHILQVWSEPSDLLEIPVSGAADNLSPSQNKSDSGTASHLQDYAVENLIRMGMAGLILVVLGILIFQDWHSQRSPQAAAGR

T1 sequence (O75022 24-631): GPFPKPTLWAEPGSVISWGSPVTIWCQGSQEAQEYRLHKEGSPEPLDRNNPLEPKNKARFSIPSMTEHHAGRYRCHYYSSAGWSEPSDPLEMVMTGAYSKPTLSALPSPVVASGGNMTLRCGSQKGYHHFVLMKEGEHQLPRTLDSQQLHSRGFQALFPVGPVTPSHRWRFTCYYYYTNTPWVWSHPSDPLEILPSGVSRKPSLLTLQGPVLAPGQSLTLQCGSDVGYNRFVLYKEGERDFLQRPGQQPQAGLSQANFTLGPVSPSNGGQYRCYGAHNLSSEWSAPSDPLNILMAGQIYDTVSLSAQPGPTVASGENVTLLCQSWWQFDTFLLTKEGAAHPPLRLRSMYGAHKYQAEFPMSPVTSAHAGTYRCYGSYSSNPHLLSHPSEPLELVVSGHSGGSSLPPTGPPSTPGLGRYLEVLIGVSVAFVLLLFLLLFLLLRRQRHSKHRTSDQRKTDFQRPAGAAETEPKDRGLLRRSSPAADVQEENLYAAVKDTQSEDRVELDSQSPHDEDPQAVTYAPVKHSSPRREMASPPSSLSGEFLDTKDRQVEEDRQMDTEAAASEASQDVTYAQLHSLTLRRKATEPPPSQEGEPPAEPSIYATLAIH
T3 sequence (Q6PI73 24-447 limits assumed): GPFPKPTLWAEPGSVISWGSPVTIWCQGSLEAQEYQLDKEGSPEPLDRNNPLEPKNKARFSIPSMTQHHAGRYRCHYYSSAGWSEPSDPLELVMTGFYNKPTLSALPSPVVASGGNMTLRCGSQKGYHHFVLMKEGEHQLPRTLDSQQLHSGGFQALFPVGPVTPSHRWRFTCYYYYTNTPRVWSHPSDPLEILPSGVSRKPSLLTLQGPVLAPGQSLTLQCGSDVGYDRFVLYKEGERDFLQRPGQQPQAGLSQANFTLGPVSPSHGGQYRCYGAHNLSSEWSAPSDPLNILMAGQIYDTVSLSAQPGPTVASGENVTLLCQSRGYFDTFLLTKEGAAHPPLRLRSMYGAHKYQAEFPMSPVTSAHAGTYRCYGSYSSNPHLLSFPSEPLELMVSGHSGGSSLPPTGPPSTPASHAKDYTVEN
T6 sequence (Q8N423 22-597): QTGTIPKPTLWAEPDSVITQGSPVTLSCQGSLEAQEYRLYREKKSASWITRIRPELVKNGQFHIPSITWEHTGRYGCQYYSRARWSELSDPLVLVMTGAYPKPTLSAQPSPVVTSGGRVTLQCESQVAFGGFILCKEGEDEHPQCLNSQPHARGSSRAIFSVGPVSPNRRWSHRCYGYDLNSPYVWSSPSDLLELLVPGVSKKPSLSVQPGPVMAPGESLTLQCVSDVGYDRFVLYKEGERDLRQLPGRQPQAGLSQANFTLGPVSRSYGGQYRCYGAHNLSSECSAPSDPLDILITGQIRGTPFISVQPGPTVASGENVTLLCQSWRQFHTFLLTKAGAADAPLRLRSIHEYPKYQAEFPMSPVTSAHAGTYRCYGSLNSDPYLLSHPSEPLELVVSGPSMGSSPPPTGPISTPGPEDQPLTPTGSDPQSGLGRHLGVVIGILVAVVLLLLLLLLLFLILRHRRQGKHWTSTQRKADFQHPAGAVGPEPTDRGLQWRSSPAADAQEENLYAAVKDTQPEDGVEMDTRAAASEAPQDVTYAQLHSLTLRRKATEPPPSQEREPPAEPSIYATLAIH
T9 sequence (Q8N149 24-483): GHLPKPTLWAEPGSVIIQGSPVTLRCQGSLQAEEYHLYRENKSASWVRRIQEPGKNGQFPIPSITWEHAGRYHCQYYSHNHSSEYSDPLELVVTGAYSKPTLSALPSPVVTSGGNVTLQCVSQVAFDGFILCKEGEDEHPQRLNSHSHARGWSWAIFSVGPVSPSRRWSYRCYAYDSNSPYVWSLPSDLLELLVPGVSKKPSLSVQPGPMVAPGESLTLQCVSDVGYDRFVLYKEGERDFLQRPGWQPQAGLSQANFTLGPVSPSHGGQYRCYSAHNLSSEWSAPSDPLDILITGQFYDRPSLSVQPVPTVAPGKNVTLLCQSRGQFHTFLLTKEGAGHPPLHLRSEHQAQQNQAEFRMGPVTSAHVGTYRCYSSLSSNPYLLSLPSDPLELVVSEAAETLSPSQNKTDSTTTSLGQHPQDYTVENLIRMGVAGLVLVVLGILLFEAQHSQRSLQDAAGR
T10 sequence (P59901 24-499): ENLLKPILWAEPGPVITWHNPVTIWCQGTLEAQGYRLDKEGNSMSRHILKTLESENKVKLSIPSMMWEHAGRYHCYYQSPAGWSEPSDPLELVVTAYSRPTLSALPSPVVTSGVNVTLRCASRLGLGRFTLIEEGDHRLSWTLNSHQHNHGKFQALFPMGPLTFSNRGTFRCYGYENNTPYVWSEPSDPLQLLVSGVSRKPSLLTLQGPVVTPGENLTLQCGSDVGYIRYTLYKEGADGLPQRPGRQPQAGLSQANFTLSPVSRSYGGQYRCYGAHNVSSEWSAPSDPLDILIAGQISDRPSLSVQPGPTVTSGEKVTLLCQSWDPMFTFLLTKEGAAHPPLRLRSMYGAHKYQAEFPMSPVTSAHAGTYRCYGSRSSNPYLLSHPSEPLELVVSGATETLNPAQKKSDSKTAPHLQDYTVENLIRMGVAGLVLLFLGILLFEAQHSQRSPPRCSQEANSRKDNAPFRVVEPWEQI
T8 sequence (O75019 17-489): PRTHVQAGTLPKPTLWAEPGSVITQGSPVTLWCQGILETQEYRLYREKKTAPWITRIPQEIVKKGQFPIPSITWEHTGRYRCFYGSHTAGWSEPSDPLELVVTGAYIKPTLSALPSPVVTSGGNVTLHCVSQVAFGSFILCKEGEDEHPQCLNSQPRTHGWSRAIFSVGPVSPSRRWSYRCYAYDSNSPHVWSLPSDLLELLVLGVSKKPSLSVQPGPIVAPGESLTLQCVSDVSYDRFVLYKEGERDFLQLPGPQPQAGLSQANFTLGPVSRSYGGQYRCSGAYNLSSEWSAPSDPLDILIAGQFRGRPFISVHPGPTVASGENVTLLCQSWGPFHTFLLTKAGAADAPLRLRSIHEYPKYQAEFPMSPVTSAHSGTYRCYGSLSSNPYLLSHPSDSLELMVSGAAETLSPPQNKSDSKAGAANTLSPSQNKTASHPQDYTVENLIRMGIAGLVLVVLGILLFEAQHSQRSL
T5 sequence (O75023 24-590): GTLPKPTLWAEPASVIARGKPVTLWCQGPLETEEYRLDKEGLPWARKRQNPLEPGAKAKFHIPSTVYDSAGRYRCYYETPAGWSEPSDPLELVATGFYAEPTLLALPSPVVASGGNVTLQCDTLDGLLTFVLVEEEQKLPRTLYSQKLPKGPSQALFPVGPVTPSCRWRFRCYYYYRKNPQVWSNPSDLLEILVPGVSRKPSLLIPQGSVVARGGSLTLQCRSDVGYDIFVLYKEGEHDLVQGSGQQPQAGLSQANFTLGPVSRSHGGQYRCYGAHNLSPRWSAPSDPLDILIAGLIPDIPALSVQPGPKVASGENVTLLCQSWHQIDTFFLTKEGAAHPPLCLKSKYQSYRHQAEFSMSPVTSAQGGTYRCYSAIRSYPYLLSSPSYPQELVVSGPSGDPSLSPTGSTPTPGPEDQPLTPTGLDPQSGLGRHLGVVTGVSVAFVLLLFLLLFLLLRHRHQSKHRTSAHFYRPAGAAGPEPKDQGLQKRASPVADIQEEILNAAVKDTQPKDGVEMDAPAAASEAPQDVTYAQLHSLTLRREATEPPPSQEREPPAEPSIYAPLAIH
T4 sequence (Q8NHL6 24-650): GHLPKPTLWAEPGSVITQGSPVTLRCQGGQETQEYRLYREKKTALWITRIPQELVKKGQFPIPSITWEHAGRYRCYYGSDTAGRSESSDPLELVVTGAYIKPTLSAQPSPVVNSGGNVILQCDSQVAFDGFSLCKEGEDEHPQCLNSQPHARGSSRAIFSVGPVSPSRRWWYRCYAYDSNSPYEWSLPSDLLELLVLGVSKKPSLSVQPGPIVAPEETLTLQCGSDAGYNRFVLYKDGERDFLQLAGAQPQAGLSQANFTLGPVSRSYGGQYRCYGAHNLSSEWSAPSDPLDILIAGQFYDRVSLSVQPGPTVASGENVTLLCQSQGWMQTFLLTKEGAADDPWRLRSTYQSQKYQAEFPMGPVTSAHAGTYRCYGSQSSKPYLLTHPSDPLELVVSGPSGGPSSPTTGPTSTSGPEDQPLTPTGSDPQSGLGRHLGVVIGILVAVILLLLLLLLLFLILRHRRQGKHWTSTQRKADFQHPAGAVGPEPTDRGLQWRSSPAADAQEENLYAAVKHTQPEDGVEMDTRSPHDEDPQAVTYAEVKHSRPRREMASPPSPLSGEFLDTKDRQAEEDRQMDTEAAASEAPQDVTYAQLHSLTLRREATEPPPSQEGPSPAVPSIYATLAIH
T7 sequence (Q8N6C8 24-439): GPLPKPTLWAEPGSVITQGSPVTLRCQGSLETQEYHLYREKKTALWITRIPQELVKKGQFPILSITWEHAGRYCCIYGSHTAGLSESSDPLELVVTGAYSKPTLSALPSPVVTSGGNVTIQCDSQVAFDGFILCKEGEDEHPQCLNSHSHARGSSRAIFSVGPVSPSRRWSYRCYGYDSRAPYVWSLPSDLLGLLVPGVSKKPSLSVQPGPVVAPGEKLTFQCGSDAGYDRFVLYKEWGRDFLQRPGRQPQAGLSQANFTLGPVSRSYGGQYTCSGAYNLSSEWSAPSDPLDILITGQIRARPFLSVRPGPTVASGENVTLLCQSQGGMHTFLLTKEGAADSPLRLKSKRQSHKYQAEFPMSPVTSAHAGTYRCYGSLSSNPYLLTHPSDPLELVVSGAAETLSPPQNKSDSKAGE

Binder | binding result (human LILRB3 [1]) | FcγR stimulation (TNF-α, pg/mL) (human LILRB4 [2]) [pg/mL] | Fold change (Compared to isotype) (human LILRB4 [2]) [fold] | EC50 (human LILRB4 [3]) [nM] | Max MFI (human LILRB4 [3]) [MFI] | binding result (human LILRA6 protein) | Max cell cytotoxicity (%), ADCC on THP-1 cells (human LILRB4 [4]) [%] | ADCP (%) at 133.3 nM, macrophages and MV-4-11 cells (human LILRB4 [5]) [%] | other results
ch2-H1-D7-E5-D5 (antibody, V domains shown) VH: EVHLVESGGGLVQPGGSRKLSCAASGFTFSSFGMHWVRQPPEKGLEWVAYISSGSSSIYYADTVKGRFTISRDNPKNTLFLQMTSLRSEDTAMYYCARGTGTGAMDYWGQGTSVTVSS VL: DIQMTQTTSSLSASLGDRVTISCRTSQDISNYLNWYQQKPDGTVKLLIYYTSKLHSGVPSRFSGSGSGTDYSLTISNLDQEDIATYFCQQGNTLPWTFGGGTKLEIK | no binding (tested: up to 66.67 nM) | 325 | 10.3 | 1.6 | 38300 | no binding | 39.6 | 27.9 | EC50 (nM), ADCC on THP-1 cells (human LILRB4 [4]): 7.34 nM
ch10-H9-E3-G3 (antibody, V domains shown) VH: EVQRVESGGGLVQPGGSRKLSCAASGFTFSSFGMHWVRQAPEKGLEWVAYISSGSSAMYYADTVKGRFTISRDNPKNTLFLQMTSLRSEDTAMYYCARSDGKGAMDYWGQGTSVTVSS VL: DIQMTQTTSSLSASLGDRVTISCRASQDISNYLNWYQQKPDGTVKLLVYYTSRLHSGVPSRFSGSGSGTDYSLTISNLEQEDIATYFCQQGNTLPWTFGGGTKLEIK | no binding (tested: up to 66.67 nM) | 389 | 12.3 | 1.41 | 45200 | no binding | 16.6 | 13.7 | –
ch26-H9-B9-B7 (antibody, V domains shown) VH: EVQRVESGGGLVQPGGSRKLSCAASGFTFSSFGMHWVRQAPEKGLEWVAYISSGSSTIYYADTVKGRFTISRDNPKNTLFLQMTSLRSEDTAMYYCARSDGKGAMDYWGQGTSVTVSS VL: DIVMTQSTSSLSASLGDRVTISCRASQDISNYLNWYQQKPDGTVKLLIYYTSRLHSGVPSRFSGSGSGTDYSLTISNLEQEDIATYFCQQGNTLPWTFGGGTKLEIK | no binding (tested: up to 66.67 nM) | 547 | 17.3 | 1.66 | 46000 | no binding | 15.2 | 16.1 | –
ch27-D11-C2-A10 (antibody, V domains shown) VH: EVQLVESGGGLVQPGGSRKLSCAASGFTFSVFGVHWVRQAPEKGLEWVAYISSGSNTIHYADTVKGRFTISRDIPKNTLFLQMTSLRSEDTAMYYCARSSGTGAMDYWGQGTSVTVSS VL: DIQMTQSTSSLSASLGDRVSISCRASQDISNYLNWYQQKPDGAVKLLIYYTSRLHSGVPSRFSGSGSGTDYSLTISNLDQEDIATYFCQQGNTLPWTFGGGTKLELK | no binding (tested: up to 66.67 nM) | 666 | 21.1 | 1.43 | 46800 | no binding | 20.2 | 12.1 | –
ch27-F11-E10-G10 (antibody, V domains shown) VH: EVQLVESGGGLVQPGGSRKLSCAASGFTFSSFGMHWVRQAPEKGLEWVAYISSGSSTIYYADTVKGRFSISRDNPKNTLFLQMTSLRSEDTAMFYCARSTGTGAMDYWGQGTSVTVSS VL: DIQMTQTTSSLSASLGDRVTISCRASQDISNYLNWYQQKPDGTVKLLIYYTSRLHSGVPSRFSGSGSGTDYSLTISNLEQEDIATYFCQQGNTLPWTFGGGTKLELK | no binding (tested: up to 66.67 nM) | 393 | 12.4 | 1.52 | 46200 | no binding | 18.7 | 16.3 | –
ch27-G5-E9-B8 (antibody, V domains shown) VH: EVQLVESGGGLVQPGGSRKLSCAASGFTFSSFGMHWVRQAPEKGLEWVAYISSGSSTIYYADTVKGRFTISRDNPKNTLFLQMTSLRSEDTAMYYCARSTGTGAMDYWGQGTSVTVSS VL: DIQMTQTTSSLSASLGDSVTFSCRASQDISNYLNWYQQKPDGTVKLLISYTSRLHSGVPSRFSGSGSGTDYSLTISNLEQEDIATYFCQQGNALPWTFGGGTKLEIK | no binding (tested: up to 66.67 nM) | 394 | 12.5 | 1.75 | 44300 | no binding | 16.4 | 14.8 | –
ch42-C8-A12-F3-D11 (antibody, V domains shown) VH: EVHLVESGGDLVKPGGSLKLSCAASGFTFSSHGMSWVRQTPDKRLEWVATISSGGIYTYHPDSVKGRFSISRDNAKKTLYLQMSSLKSEDTGIYYCTRGQVGNWYFDVWGAGTTVTVSS VL: DIVITQSPAIMSASPGEKVTINCSASSSVSYMHWFQQTPGTSPKLWIYSTSNLASGVPARFSGSGSGTFYSLTISRMEAEDAATYYCQQRSSYPLTFGAGTKLELK | – | 308 | 9.73 | 1.36 | 48400 | – | 14.5 | 20.4 | EC50 (human LILRB3 [1]): 12.8 nM; ELISA(OD450) (human LILRA6 protein): 0.32 OD450
ch7-B4-C1-C9 (antibody, V domains shown) VH: EVQLQQSGTELVKPGASVKLSCKASGYTFTNYWMHWVKQRPGQGLEWIGEINPSNGRTNYNEKFKTKATLTVDKSSSTAYMQLSSLTSEDSAVYYCARSTYYGYDWYFDVWGAGTTVTVSS VL: DIVLTQSPSSMYASLGERVTITCKASQDINSYLSWFQQKPGKSPKTLIYRANRLLDGVPSRFSGGGSGQDYSLTISSLEHEDMGIYYCLQCDEFPHTFGGGTKLEIK | no binding (tested: up to 66.67 nM) | 415 | 13.1 | 0.54 | 47300 | no binding | 13.9 | 11.8 | –
ch25-E7-A10-H6 (antibody, V domains shown) VH: EVQLVESGGGLVQPGGSRKLSCAASGFTFSTFGMHWVRQAPEKGLEWVAYISSGSSTIYYADTVKGRFTISRDNPKNTLFLQMTSLRSEDTAMYYCARSTGTGAMDYWGQGTSVTVSS VL: DIQMTQTTSSLSASLGDRVTISCRASQDISKYLNWYQQKPDGTVKLLIYYTSRLHSGVPSRFSGSGSGTDYSLTISNLEQEDIATYFCQQGNTLPWTFGGGTKLEIK | no binding (tested: up to 66.67 nM) | 390 | 12.3 | 1.4 | 45000 | no binding | 11.7 | 11 | –
25-G9-G4-C12 (antibody, V domains shown, mouse monoclonal hybridoma antibody) VH: EVQLVESGGDLVKPGGSLKLSCAASGFTFSSHGMSWVRQTPDKRLEWVATINSGGYYTYYPDSVKGRFTISRDNAKNTLYLQMSSLKSEDTAMYYCARGQLGNWYFDVWGAGTTVTVSS VL: DIVMTQSPAIMSASPGEKVTITCSASSSVSYMHWFQQKPGTSPKLWIYSTSNLASGVPARFSGSGSGTSYSLTISRMEAEDAATYYCQQRSSYPLTFGAGTKLELK | – | – | – | – | – | – | – | – | MFI (human LILRB4 [6]): 383 MFI; MFI (human LILRB1): 26 MFI; MFI (human LILRB5): 22.9 MFI; MFI (human LILRB2): 32.8 MFI; MFI (human LILRA3): 18.6 MFI; MFI (human LILRA1): 24.3 MFI; MFI (human LILRA2): 21.7 MFI; MFI (human LILRB3 [7]): 25.2 MFI; MFI (human LILRA4): 22.7 MFI; MFI (human LILRA5): 25.3 MFI
